From paper PMC11791182, “Molecular mechanism targeting condensin for chromosome condensation” (The EMBO Journal, 2024)

What was measured:
Details in all cases: both partners purified
[1] = target: T1, pentameric condensin holo-complex (S. cerevisiae, UniProt P38989 1-1170; Q12267 1-1418; P38170 1-754; Q06680 1-1035; Q06156 1-1176); test: co-IP; two purified recombinant proteins with anti-V5-coupled dynabeads (V5-Sgo1 held), 2.5 h; 25 mM HEPES pH 7.5, 500 mM NaCl, 10% glycerol, 1 mM DTT, 0.1% NP-40; silver-stained SDS-PAGE and immunoblot
T1 construct: Smc2, condensin subunit, S. cerevisiae; Smc4, condensin subunit, S. cerevisiae; Brn1, condensin kleisin subunit, S. cerevisiae; Ycg1, condensin HAWK subunit, S. cerevisiae; Ycs4, condensin HAWK subunit, S. cerevisiae; Constructs were a gift (St-Pierre et al, 2009); also called Sc condensin complex; condensin (Brn1-6HA); source: purified from yeast (as described previously, Kschonsak et al, 2017); …

[2] = target: T2, Ycg1 (6–932, Δ499–555)-Brn1 (384–529) (S. cerevisiae, UniProt Q06680 6-932; P38170 384-529, Δ499–555); test: co-IP; two purified recombinant proteins with anti-GFP-coupled dynabeads (GFP-Sgo1 variants held), 2.5 h; 25 mM HEPES pH 7.5, 500 mM NaCl, 10% glycerol, 1 mM DTT, 0.1% NP-40; silver-stained SDS-PAGE
T2 construct: Ycg1, condensin HAWK subunit, S. cerevisiae, residues 6-932 with 499-555 deleted; Brn1, condensin kleisin subunit, S. cerevisiae, residues 384-529; Construct was a gift of Christian Haering (Kschonsak et al, 2017); also called Ycg1-Brn1; source: E. coli, purified (as described previously, Kschonsak et al, 2017)
T2 sequence (looked up) 1: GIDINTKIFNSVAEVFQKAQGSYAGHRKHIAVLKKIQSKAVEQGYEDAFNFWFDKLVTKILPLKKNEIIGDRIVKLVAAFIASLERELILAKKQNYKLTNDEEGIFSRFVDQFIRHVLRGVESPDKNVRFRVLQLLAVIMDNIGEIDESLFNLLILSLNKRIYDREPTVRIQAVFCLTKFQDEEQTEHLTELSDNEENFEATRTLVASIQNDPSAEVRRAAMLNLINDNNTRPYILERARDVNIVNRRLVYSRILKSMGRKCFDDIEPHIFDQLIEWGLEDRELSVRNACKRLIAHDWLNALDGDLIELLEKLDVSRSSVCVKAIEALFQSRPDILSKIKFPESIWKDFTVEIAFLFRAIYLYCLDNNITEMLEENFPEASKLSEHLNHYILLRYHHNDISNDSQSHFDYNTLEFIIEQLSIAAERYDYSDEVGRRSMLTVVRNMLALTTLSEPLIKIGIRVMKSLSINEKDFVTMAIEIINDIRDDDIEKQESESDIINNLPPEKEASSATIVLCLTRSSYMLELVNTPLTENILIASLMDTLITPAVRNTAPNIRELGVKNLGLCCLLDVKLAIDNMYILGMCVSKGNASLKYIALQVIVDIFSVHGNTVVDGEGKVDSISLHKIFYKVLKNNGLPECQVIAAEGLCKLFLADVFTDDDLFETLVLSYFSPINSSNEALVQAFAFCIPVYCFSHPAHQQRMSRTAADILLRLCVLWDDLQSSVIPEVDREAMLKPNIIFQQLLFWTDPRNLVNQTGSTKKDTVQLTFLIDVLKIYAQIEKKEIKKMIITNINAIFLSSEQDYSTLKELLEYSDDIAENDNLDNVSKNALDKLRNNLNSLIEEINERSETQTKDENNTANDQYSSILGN
T2 sequence (looked up) 2: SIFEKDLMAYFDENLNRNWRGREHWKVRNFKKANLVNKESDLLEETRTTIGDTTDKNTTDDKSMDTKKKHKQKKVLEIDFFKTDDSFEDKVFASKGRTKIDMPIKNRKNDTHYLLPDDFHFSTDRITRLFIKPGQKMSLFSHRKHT

[3] = target: T2, Ycg1 (6–932, Δ499–555)-Brn1 (384–529); test: SEC; Sgo1 (350–590) with Ycg1 (6–932, Δ499–555)-Brn1 (384–529); Superdex200 10/300 24 ml column; 10 mM Tris-HCl pH 7.5, 250 mM NaCl, 5% glycerol, 0.001% Tween-20

B1: V5-Sgo1 (FL) (natural protein, S. cerevisiae, UniProt Q08490 1-590, looked up)
chain: MPKRKIAPNKESSRRTVSHDDLTPQIQEFQNLMDLESQKVENIRQSYSRQNSLLAKDNSILKIKVNSLEKKISQLVQENVTLRSKTSISEAIYRERLSNQLQVIENGIIQRFDEIFYMFENVRKNENLPSSSLRTMLKRTSSRSRSCSLSSPTYSKSYTRLSNHENNLSHESSFNKDDGPDLEPKAKKRKSSRRQSMFVSTSLEPEDETGENEPMMENSSVEVPAESHESAQVEETIDALNPEEENSDSVSNFTNSIIEYSIPEENPTEPEHSSSKLEIFNDSTNMLSTVPSNPLPLPLPGPSATLPTTTSDASTVYPSSSSSTNSHPKTKIKHSMKPPRIELKKKVIDEVMPVSNMSSNSEISFTRTRRTRGKAVDYTLPSLRAKMRRPSEKLVDATTVIDIHDLQVSKRNRETSHKRKSLSQDSIPDEPQLREVVVSKDYGTPKGKKTEDEIHEDTAHLMTTSNNNSNNKNEKKLTSNNSPKKSSPLLDITNKSENKKKSTRTKKLFKNAIVNNLSDENSTTRPSKSSKGTSNNNNNYNNFDNNNSNINNVNNKSVSFRLNEDDLAVFDLFGNGKAVKHQPKTYRTKK
notes: Sgo1 (shugoshin), S. cerevisiae, full length; also called full-length V5-Sgo1; Sc Sgo1; source: protease-deficient yeast strain (AM8184), purified (Ni2+ IMAC, Superose 6 gel filtration)
B1: binds [1].

B2: GFP-Sgo1 (350–590) (domain or fragment, S. cerevisiae, UniProt Q08490 350-590, looked up)
chain: EVMPVSNMSSNSEISFTRTRRTRGKAVDYTLPSLRAKMRRPSEKLVDATTVIDIHDLQVSKRNRETSHKRKSLSQDSIPDEPQLREVVVSKDYGTPKGKKTEDEIHEDTAHLMTTSNNNSNNKNEKKLTSNNSPKKSSPLLDITNKSENKKKSTRTKKLFKNAIVNNLSDENSTTRPSKSSKGTSNNNNNYNNFDNNNSNINNVNNKSVSFRLNEDDLAVFDLFGNGKAVKHQPKTYRTKK
notes: Sgo1 (shugoshin), S. cerevisiae, residues 350-590; also called C-terminal region of Sgo1 (residues 350–590); C-Sgo1
B2: binds [2].

B3: GFP-Sgo1 (472-530) (domain or fragment, S. cerevisiae, UniProt Q08490 472-530, looked up)
chain: KNEKKLTSNNSPKKSSPLLDITNKSENKKKSTRTKKLFKNAIVNNLSDENSTTRPSKSS
notes: Sgo1 (shugoshin), S. cerevisiae, residues 472-530; also called Recombinant Sgo1 (472-530), wild type; source: E. coli BL21(DE3), purified (Ni-NTA resin, dialysis)
B3: binds [2].

B4: V5-Sgo1 (350–590) (domain or fragment, S. cerevisiae, UniProt Q08490 350-590, looked up)
chain: B2 chain
notes: Sgo1 (shugoshin), S. cerevisiae, residues 350-590; also called recombinant C-terminal region of Sgo1 (350–590); source: protease-deficient yeast strain (AM8184), galactose induced, purified (Ni2+ IMAC, Superose 6 gel filtration)
B4: binds [1]; binds [3].
